Source: article PMC8121789, “Characterization of an engineered live bacterial therapeutic for the treatment of phenylketonuria in a human gut-on-a-chip” (Nature Communications, 2021)

Substrate: N[C@@H](Cc1ccccc1)C(=O)O
Experiment: Phe consumption by live engineered cells, Michaelis-Menten model
Format: cell-based, Photorhabdus laumondii
Conditions: apparent whole-cell pathway value (PheP uptake plus PAL), not purified enzyme; in vitro Phe consumption assays

B1: phenylalanine ammonia lyase (PAL) (Photorhabdus laumondii subsp. laumondii TTO1) (protein)
chain: MKAKDVQPTIIINKNGLISLEDIYDIAIKQKKVEISTEITELLTHGREKLEEKLNSGEVIYGINTGFGGNANLVVPFEKIAEHQQNLLTFLSAGTGDYMSKPCIKASQFTMLLSVCKGWSATRPIVAQAIVDHINHDIVPLVPRYGSVGASGDLIPLSYIARALCGIGKVYYMGAEIDAAEAIKRAGLTPLSLKAKEGLALINGTRVMSGISAITVIKLEKLFKASISAIALAVEALLASHEHYDARIQQVKNHPGQNAVASALRNLLAGSTQVNLLSGVKEQANKACRHQEITQLNDTLQEVYSIRCAPQVLGIVPESLATARKILEREVISANDNPLIDPENGDVLHGGNFMGQYVARTMDALKLDIALIANHLHAIVALMMDNRFSRGLPNSLSPTPGMYQGFKGVQLSQTALVAAIRHDCAASGIHTLATEQYNQDIVSLGLHAAQDVLEMEQKLRNIVSMTILVVCQAIHLRGNISEIAPETAKFYHAVREISSPLITDRALDEDIIRIADAIINDQLPLPEIMLEE
notes: PAL genes inserted in chromosome of host E. coli Nissle 1917 strain SYN5183 (FNR and Ptac promoters), co-expressed with transporter PheP; live cells
Km: 200 µM
